Assays:
[1] = molecular target: T1, ROR1 naturally expressed on human tumor cell lines (A549, Jeko-1, SW620, PA-1) (human, UniProt Q01973 30-937); assay: FACS on A549 cells naturally expressing ROR1
T1 construct: whole, on cells; also called cells expressing ROR1

[2] = molecular target: T1, ROR1 naturally expressed on human tumor …; assay: FACS on SW620 cells naturally expressing ROR1
[3] = molecular target: T1, ROR1 naturally expressed on human tumor …; assay: FACS on Jeko-1 cells naturally expressing ROR1
[4] = molecular target: T2, human/cynomolgus monkey ROR1 protein (Acro Biosystems, Cat. No.: RO1-H522y) (human/cynomolgus monkey, UniProt Q01973 30-403); assay: SPR (Biacore), antibody captured on anti-hIgG CM5 chip, ROR1 protein as analyte, 1:1 model
T2 construct: Bought SPR analyte
T2 sequence (Q01973 30-403 limits assumed): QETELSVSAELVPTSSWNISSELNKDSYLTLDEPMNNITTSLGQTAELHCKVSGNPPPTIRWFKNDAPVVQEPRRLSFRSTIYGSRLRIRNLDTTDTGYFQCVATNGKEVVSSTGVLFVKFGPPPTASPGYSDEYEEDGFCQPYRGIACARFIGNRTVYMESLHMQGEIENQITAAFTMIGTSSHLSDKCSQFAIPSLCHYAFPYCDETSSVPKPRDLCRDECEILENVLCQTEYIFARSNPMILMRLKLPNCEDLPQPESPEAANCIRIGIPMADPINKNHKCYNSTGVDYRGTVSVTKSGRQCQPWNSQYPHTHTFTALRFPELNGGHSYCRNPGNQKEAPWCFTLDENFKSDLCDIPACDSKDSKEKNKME

[5] = molecular target: T1, ROR1 naturally expressed on human tumor …; assay: FACS on PA-1 cells naturally expressing ROR1
[6] = molecular target: T1, ROR1 naturally expressed on human tumor …; assay: FACS on SW620 cells naturally expressing ROR1; remark: listed apart in the source
[7] = molecular target: T1, ROR1 naturally expressed on human tumor …; assay: FACS on Jeko-1 cells naturally expressing ROR1; remark: listed apart in the source
[8] = molecular target: T2, human/cynomolgus monkey ROR1 protein …; assay: SPR (Biacore), antibody captured on anti-hIgG CM5 chip, ROR1 protein as analyte, method of Example 5
[9] = molecular target: T1, ROR1 naturally expressed on human tumor …; assay: FACS on PA-1 cells naturally expressing ROR1; remark: listed apart in the source
[10] = molecular target: T1, ROR1 naturally expressed on human tumor …; assay: FACS on SW620 cells naturally expressing ROR1; remark: listed apart in the source
[11] = molecular target: T1, ROR1 naturally expressed on human tumor …; assay: FACS on Jeko-1 cells naturally expressing ROR1; remark: listed apart in the source
[12] = molecular target: T1, ROR1 naturally expressed on human tumor …; assay: FACS on PA-1 cells naturally expressing ROR1; remark: listed apart in the source
[13] = molecular target: T1, ROR1 naturally expressed on human tumor …; assay: FACS on SW620 cells naturally expressing ROR1; remark: listed apart in the source
[14] = molecular target: T1, ROR1 naturally expressed on human tumor …; assay: FACS on Jeko-1 cells naturally expressing ROR1; remark: listed apart in the source

T1 sequence (Q01973 30-937): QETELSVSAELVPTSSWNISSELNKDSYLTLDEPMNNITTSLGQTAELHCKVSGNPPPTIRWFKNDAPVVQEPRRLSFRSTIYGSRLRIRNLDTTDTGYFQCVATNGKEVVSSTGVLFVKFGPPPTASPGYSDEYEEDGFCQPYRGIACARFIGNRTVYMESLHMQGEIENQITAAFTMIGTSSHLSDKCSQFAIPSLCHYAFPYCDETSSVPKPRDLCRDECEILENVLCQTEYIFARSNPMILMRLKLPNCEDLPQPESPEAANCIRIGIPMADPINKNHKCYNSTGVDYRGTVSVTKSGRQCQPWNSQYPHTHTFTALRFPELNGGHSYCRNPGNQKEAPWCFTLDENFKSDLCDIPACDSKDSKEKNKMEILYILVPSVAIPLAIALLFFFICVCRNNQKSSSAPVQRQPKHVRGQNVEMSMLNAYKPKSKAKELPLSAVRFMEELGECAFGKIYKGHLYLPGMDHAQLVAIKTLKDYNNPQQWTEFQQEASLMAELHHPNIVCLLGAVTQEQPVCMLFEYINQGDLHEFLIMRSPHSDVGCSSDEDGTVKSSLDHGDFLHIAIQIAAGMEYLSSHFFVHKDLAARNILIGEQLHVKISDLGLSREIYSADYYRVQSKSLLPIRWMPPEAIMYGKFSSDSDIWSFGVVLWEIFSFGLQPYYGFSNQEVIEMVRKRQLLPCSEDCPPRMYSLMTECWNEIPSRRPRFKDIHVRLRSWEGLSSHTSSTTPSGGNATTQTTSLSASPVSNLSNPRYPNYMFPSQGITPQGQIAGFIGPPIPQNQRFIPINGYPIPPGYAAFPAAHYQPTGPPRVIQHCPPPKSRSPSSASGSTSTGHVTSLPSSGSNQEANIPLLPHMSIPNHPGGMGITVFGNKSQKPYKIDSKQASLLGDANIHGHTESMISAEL

EC50 [1] [nM] | Top (MFI) [1] [MFI] | EC50 [2] [nM] | Top (MFI) [2] [MFI] | EC50 [3] [nM] | Top (MFI) [3] [MFI] | Kd [4] [nM] | koff [4] [s⁻¹] | kon [4] [M⁻¹ s⁻¹] | Kd [8] [nM] | koff [8] [s⁻¹] | kon [8] [M⁻¹ s⁻¹] | EC50 [9] [nM] | Top (MFI) [9] [MFI] | EC50 [10] [nM] | Top (MFI) [10] [MFI] | EC50 [11] [nM] | Top (MFI) [11] [MFI] | Binder | also measured
0.016 | 78500 | 0.01 | 27000 | 0.011 | 70400 | 0.669 | 0.00248 | 3.7e+06 |  |  |  |  |  |  |  |  |  | ch29H5D8 (antibody, human IgG1, kappa, V domains shown, also called chimeric antibody of m29H5D8) VH: EVQLQQSGAELARPGASVKLSCKASGYTFTNYGISWVKQRTGQGLEWIGEIYPRSVNTYYSAKFKGKATLTADKSSSTAYMELRSLTSEDSAVYFCARHYYGSSLDYWGQGTTLTVSS VL: DIVLTQSPASLSVATGEKVTIRCITSSDIEDDMNWYQQKPGEPPKLLISEGNSLRPGVPSRFSSSGYGTDFVFTIENTLSEDVADYYCLQSDNIFTFGSGTKLEIKR | 
 |  |  |  |  |  |  |  |  | 0.569 | 0.000596 | 1.05e+06 |  |  |  |  |  |  | hz135A2B10-1.2 (antibody, human IgG1, kappa, V domains shown, Humanized, human IgG1/kappa) VH: QVQLVESGGGLVQPGGSLRLSCAASGFAFSTYGMAWVRQAPGKGLEWVASIHKGGFSTYYPDNVKGRFTISRDNDKNSLYLQMNSLRAEDTAVYYCIRHDWDGAMDYWGQGTLVTVSS VL: DIQMTQSPSSLSASVGDRVTITCKASQDINSYLNWYQQKPGKAPKTLIYRANRLVDGVPSRFSGSGSGQDYTLTISSLQPEDFATYYCLQFDEFPYTFGQGTKVEIKR | EC50 [5]: 0.217 nM; Top (MFI) [5]: 238000 MFI; EC50 [6]: 0.034 nM; Top (MFI) [6]: 30400 MFI; EC50 [7]: 0.022 nM; Top (MFI) [7]: 89700 MFI
 |  |  |  |  |  |  |  |  | 0.343 | 0.000811 | 2.37e+06 | 0.061 | 233000 | 0.009 | 28500 | 0.012 | 86100 | hz137G11D10-2.2 (antibody, human IgG1, kappa, V domains shown, Humanized, human IgG1/kappa) VH: QVQLQESGPGLVKPSQTLSLTCTVSGYSITSDYAWNWIRQHPGKGLEWIGYITYSASTSYNPSLKSRVTISRDTSKNQFFLKLSSVTAADTAVYYCARGAGTYYFDYWGQGTLVTVSS VL: DIQMTQSPSSLSASVGDRVTITCITSTDIDEDMNWYQQKPGKAPKLLIYEDNSLRPGVPSRFSGSGYGTDFTLTISSLQPEDFATYYCLQTNNLPLTFGQGTKVEIKR | 
 |  |  |  |  |  |  |  |  | 0.172 | 0.000492 | 2.86e+06 | 0.063 | 231000 | 0.009 | 30900 | 0.012 | 87000 | hz137G11D10-3.1 (antibody, human IgG1, kappa, V domains shown, Humanized, human IgG1/kappa) VH: QVQLQESGPGLVKPSQTLSLTCTVSGYSITSDYAWNWIRQHPGKGLEWIGYITYSASTSYNPSLKSRVTISRDTSKNQFSLKLSSVTAADTAVYYCARGAGTYYFDYWGQGTLVTVSS VL: DIQMTQSPSSLSASVGDRVTITCITSTDIDEDMNWYQQKPGKAPKLLISEDNSLRPGVPSRFSSSGYGTDFTLTISSLQPEDFATYYCLQTNNLPLTFGQGTKVEIKR | 
 |  |  |  |  |  |  |  |  | 0.16 | 0.000469 | 2.92e+06 | 0.054 | 225000 | 0.011 | 30700 | 0.012 | 86800 | hz137G11D10-3.2 (antibody, human IgG1, kappa, V domains shown, Humanized, human IgG1/kappa) VH: QVQLQESGPGLVKPSQTLSLTCTVSGYSITSDYAWNWIRQHPGKGLEWIGYITYSASTSYNPSLKSRVTISRDTSKNQFFLKLSSVTAADTAVYYCARGAGTYYFDYWGQGTLVTVSS VL: DIQMTQSPSSLSASVGDRVTITCITSTDIDEDMNWYQQKPGKAPKLLISEDNSLRPGVPSRFSSSGYGTDFTLTISSLQPEDFATYYCLQTNNLPLTFGQGTKVEIKR | 
 |  |  |  |  |  |  |  |  | 0.105 | 0.000414 | 3.94e+06 | 0.092 | 248000 | 0.013 | 31500 | 0.016 | 92500 | hz137G11D10-1.2 (antibody, human IgG1, kappa, V domains shown, Humanized, human IgG1/kappa) VH: QVQLQESGPGLVKPSQTLSLTCTVSGYSITSDYAWNWIRQHPGKGLEWIGYITYSASTSYNPSLKSRVTISRDTSKNQFFLKLSSVTAADTAVYYCARGAGTYYFDYWGQGTLVTVSS VL: ETTLTQSPAFMSATPGDKVNISCITSTDIDEDMNWYQQKPGEAAKLIISEDNSLRPGIPPRFSSSGYGTDFTLTINNIESEDAAYYFCLQTNNLPLTFGQGTKVEIKR | 
0.02 | 82800 | 0.01 | 27300 | 0.012 | 71100 | 0.61 | 0.00315 | 5.16e+06 |  |  |  |  |  |  |  |  |  | ch137G11D10 (antibody, human IgG1, kappa, V domains shown, also called chimeric antibody of m137G11D10) VH: DVQLQESGPGLVKPSQSLSLTCTVTGYSITSDYAWNWIRQFPGNKLEWMGYITYSASTSYNPSLKSRISITRDTSKNQFFLQLNSVTTEDTATYYCARGAGTYYFDYWGQGSTLTVSS VL: DIVLTQSPASLSVATGEKVTIRCITSTDIDEDMNWYQQKPGEPPKLLISEDNSLRPGVPSRFSSSGYGTDFVLTIENTLSEDVADYYCLQTNNLPLTFGAGTKLEIKR | 

The remaining lines, values behind:

Binder | EC50 [1] [nM] | Top (MFI) [1] [MFI] | EC50 [2] [nM] | Top (MFI) [2] [MFI] | EC50 [3] [nM] | Top (MFI) [3] [MFI] | Kd [4] [nM] | koff [4] [s⁻¹] | kon [4] [M⁻¹ s⁻¹] | Kd [8] [nM] | koff [8] [s⁻¹] | kon [8] [M⁻¹ s⁻¹] | EC50 [9] [nM] | Top (MFI) [9] [MFI] | EC50 [10] [nM] | Top (MFI) [10] [MFI] | EC50 [11] [nM] | Top (MFI) [11] [MFI] | also measured
ch3G9B1 (antibody, human IgG1, kappa, V domains shown, also called chimeric antibody of m3G9B1) VH: QVQLQQSGTELARPGASVKLSCKASGYTFTSYGITWVKQRTGQGLEWIGEIYPRSGNTYFNEKFKGKATLTADKSSSTAYMELRSLTSEDSAVYFCARDRTGTGVDDYWGQGTTLTVSS VL: DIVLTQSPASLSMAIGEKVTIRCITNTDIDDDMSWYQQKPGEPPNLLISEGNTLRPGVPSRFSSSGYGRDFVFTIENMLSEDVADYYCLQSNNLPYTFGGGTKLEIKR | 0.03 | 65200 | 0.048 | 20400 | 0.01 | 61100 | 27.1 | 0.0639 | 2.36e+06 |  |  |  |  |  |  |  |  |  | 
ch135A2B10 (antibody, human IgG1, kappa, V domains shown, also called chimeric antibody of m135A2B10) VH: DVKLVESGGGLVTPEGSLKLSCAASGFAFSTYGMAWVRQTPEKRLEWVASIHKGGFSTYYPDNVKGRFTISRDNDKNTLYLQMSSLKSEDTAMYYCIRHDWDGAMDYWGQGTSVTVSS VL: DIVLTQSPSSMYASLGERVTITCKASQDINSYLNWFQQKPGKSPKTLIYRANRLVDGVPSRFSGSGSGQDYSLTISSLEYEDLGIYYCLQFDEFPYTFGGGTKLEIKR | 0.094 | 87800 | 0.06 | 29800 | 0.037 | 71900 | 0.586 | 0.000551 | 941000 |  |  |  |  |  |  |  |  |  | 
hz137G11D10-1.1 (antibody, human IgG1, kappa, V domains shown, Humanized, human IgG1/kappa) VH: QVQLQESGPGLVKPSQTLSLTCTVSGYSITSDYAWNWIRQHPGKGLEWIGYITYSASTSYNPSLKSRVTISRDTSKNQFSLKLSSVTAADTAVYYCARGAGTYYFDYWGQGTLVTVSS VL: ETTLTQSPAFMSATPGDKVNISCITSTDIDEDMNWYQQKPGEAAKLIISEDNSLRPGIPPRFSSSGYGTDFTLTINNIESEDAAYYFCLQTNNLPLTFGQGTKVEIKR |  |  |  |  |  |  |  |  |  | 0.145 | 0.000539 | 3.72e+06 | 0.075 | 244000 | 0.013 | 32600 | 0.015 | 93200 | 
hz29H5D8-3.1 (antibody, human IgG1, kappa, V domains shown, Humanized, human IgG1/kappa) VH: QVQLVQSGAEVKKPGSSVKVSCKASGYTFTNYGISWVRQAPGQGLEWMGEIYPRSVNTYYAQKFQGRVTITADKSTSTAYMELSSLRSEDTAVYYCARHYYGSSLDYWGQGTLVTVSS VL: DIQMTQSPSSLSASVGDRVTITCITSSDIEDDMNWYQQKPGKAPKLLISEGNSLRPGVPSRFSSSGYGTDFTFTISSLQPEDIATYYCLQSDNIFTFGQGTKVEIKR |  |  |  |  |  |  |  |  |  | 0.112 | 0.000218 | 1.95e+06 |  |  |  |  |  |  | EC50 [12]: 0.092 nM; Top (MFI) [12]: 247000 MFI; EC50 [13]: 0.011 nM; Top (MFI) [13]: 30700 MFI; EC50 [14]: 0.014 nM; Top (MFI) [14]: 87700 MFI
hz29H5D8-2.1 (antibody, human IgG1, kappa, V domains shown, Humanized, human IgG1/kappa) VH: QVQLVQSGAEVKKPGSSVKVSCKASGYTFTNYGISWVRQAPGQGLEWMGEIYPRSVNTYYAQKFQGRVTITADKSTSTAYMELSSLRSEDTAVYYCARHYYGSSLDYWGQGTLVTVSS VL: DIQMTQSPSSLSASVGDRVTITCITSSDIEDDMNWYQQKPGKAPKLLIYEGNSLRPGVPSRFSSSGYGTDFTFTISSLQPEDIATYYCLQSDNIFTFGQGTKVEIKR |  |  |  |  |  |  |  |  |  | 0.589 | 0.000925 | 1.57e+06 |  |  |  |  |  |  | EC50 [12]: 0.126 nM; Top (MFI) [12]: 239000 MFI; EC50 [13]: 0.015 nM; Top (MFI) [13]: 28600 MFI; EC50 [14]: 0.015 nM; Top (MFI) [14]: 85000 MFI

Reference: patent publication EP4772535A1 (Chia Tai Tianqing Pharmaceutical Group Co., Ltd., dated 2026)
